Results on two molecules are retold here after patent US20040259075A1 (US Dept. of Health and Human Services, published 2004).

What is called Kd is the constant that tells how readily two partners part at equilibrium.

Experiment [1] deals with gp120 JRFL (HIV-1 JRFL, UniProt P20871 32-503). Kind of experiment: ELISA, antigen coated (FIG. 1). A general note: ELISA stands for enzyme-linked immunosorbent assay.
Experiment [2] has as its target T1, gp120JRFL+sCD4 complex (HIV-1 JRFL).
T1 construct: domain: gp120;domain: two-domain soluble CD4 (D1D2)
Kind of experiment: ELISA, antigen coated (FIG. 1).

Experiment [3] concerns the target T2, gp120 89.6 (HIV-1 89.6, UniProt Q73372 32-508).
T2 construct: domain: gp120
As to the kind of experiment: ELISA, antigen coated, Langmuir isotherm fit (FIG. 2).

Experiment [4] addresses T3, sCD4-gp120 89.6 complex (HIV-1 89.6, UniProt Q73372 32-508; P01730 26-208).
T3 construct: domain: gp120;domain: two-domain soluble CD4 (D1D2)
Described as above.

Experiment [5] has as its target T2, gp120 89.6. Kind of experiment: ELISA, antigen coated, Langmuir isotherm fit (FIG. 2 legend).
The target in experiment [6] is T4, gp120-CD4-CCR5 complex (JRFL gp120) used for the X5 selection (HIV-1 JRFL). Kind of experiment: binding to the complex used for selection; method not stated.
Experiment [7] deals with T5, protein G cross-linked to Sepharose beads.
T5 construct: also called protein G beads; Protein G-Sepharose beads
Kind of experiment: binding to protein G cross-linked to Sepharose beads; method not stated.

Experiment [8] concerns the target T5, protein G cross-linked to Sepharose …. Kind of experiment: effective affinity of phage for protein G beads; method not stated.
In experiment [9] the target is T4, gp120-CD4-CCR5 complex (JRFL gp120) …. As to the kind of experiment: effective affinity of phage for the bead-bound complex; method not stated.
Experiment [10] concerns the target T5, protein G cross-linked to Sepharose …. Kind of experiment: effective affinity of phage for beads; reference is the gp120-CD4-CCR5 complex.

B1: X5 Fab (Fab)
heavy: EVQLLEQSGAEVKKPGSSVQVSCKASGGTFSMYGFNWVRQAPGHGLEWMGGIIPIFGTSNYAQKFRGRVTFTADQATSTAYMELTNLRSDDTAVYYCARDFGPDWEDGDSYDGSGRGFFDFWGQGTLVTVSSASTKGPSVFPLAPSSKSTSGGTAALGCLVKDYFPEPVTVSWNSGALTSGVHTFPAVLQSSGLYSLSSVVTVPSSSLGTQTYICNVNHKPSNTKVDKKVEPKSCDKTS
light: AELVLTQSPGTLSLSAGERATLSCRASQSVSSGSLAWYQQKPGQAPRLLIYGASTRATGIPDRFSGSGSGTDFTLTIGRLEPEDLAVYYCQQYGTSPYTFGQGTKLEIKRTVAAPSVFIFPPSDEQLKSGTASVVCLLNNFYPREAKVQWKVDNALQSGNSQESVTEHDSRDSTYSLGSTLTLSKADYEKHKVYACEVTHQGLSSPVTKSFNRGEC
notes: also called Fab X5; antibody Fab fragment X5
As to B1, the Kd was found to be 10 nM in experiment [1]; 2 nM in experiment [2]; 9.4 nM in experiment [3]; 1 nM in [4]; 9.3 nM in experiment [5]; 1 nM in experiment [6]. The affinity in experiment [7], expressed as Kd, was 15 nM.

B2: Phage-displayed X5 (Fab)
heavy: EVQLLEQSGAEVKKPGSSVQVSCKASGGTFSMYGFNWVRQAPGHGLEWMGGIIPIFGTSNYAQKFRGRVTFTADQATSTAYMELTNLRSDDTAVYYCARDFGPDWEDGDSYDGSGRGFFDFWGQGTLVTVSSASTKGPSVFPLAPSSKSTSGGTAALGCLVKDYFPEPVTVSWNSGALTSGVHTFPAVLQSSGLYSLSSVVTVPSSSLGTQTYICNVNHKPSNTKVDKKVEPKSCDKTS
light: AELVLTQSPGTLSLSAGERATLSCRASQSVSSGSLAWYQQKPGQAPRLLIYGASTRATGIPDRFSGSGSGTDFTLTIGRLEPEDLAVYYCQQYGTSPYTFGQGTKLEIKRTVAAPSVFIFPPSDEQLKSGTASVVCLLNNFYPREAKVQWKVDNALQSGNSQESVTEHDSRDSTYSLGSTLTLSKADYEKHKVYACEVTHQGLSSPVTKSFNRGEC
notes: also called phage X5; not shown: phage gene III fragment of the phagemid
On to B2, for which the values for the Kd in experiment [8] and in [9] were 1.4 nM and 0.09 nM, respectively. In experiment [10], the “fold lower effective affinity than for the gp120-CD4-CCR5 complex” value was 15 fold.
